Test results from patent US20040132045A1 (MERCK, published 2004).
Where “and” joins values, the source holds several entries; their conditions need not be identical. Equal values may be shown once. One block for each molecule: values may come before it. Bridges are numbered along the chain shown (N, C = ends). Where no end group is shown, it is not given here.

Tests used:
[1] = target: rhesus monkey MCH-2R (melanin-concentrating hormone type 2 receptor) (rhesus monkey) (UniProt Q8MJ88); assay: radioligand binding to HEK293T cells expressing rhesus MCH-2R in the presence of 1 uM cold [Phe13, Tyr19]-MCH
[2] = target: rhesus monkey MCH-2R (melanin-concentrating hormone type 2 receptor) (rhesus monkey) (UniProt Q8MJ88); assay: radioligand binding to HEK293T cells expressing rhesus MCH-2R, cell-bound radioactivity
[3] = target: T1, human MCH-2R (human, UniProt Q969V1 1-340); assay: radioligand competition binding on membranes of COS-7 cells transfected with human MCH-2R; radioligand not named
T1 construct: Function was measured in HEK-293 aequorin cells
Method: (§1) (Strader, et al., 1987. Proc. Natl. Acad. Sci. USA 84, 4384-4388). Cells were harvested after 60-72 hours. Membranes were prepared from transient and stable transfectants by hypotonic lysis, frozen in liquid nitrogen, and stored at −80° C. (MacNeil, et al., 1994. Biochem. Biophys. Res. Commun. 198, 328-334.)
(§2) A binding assay was set up in 96 well plates. Total volume per binding assay point was 200 μL. […] Dose response curves were from 10 μM in 5 fold or 3-fold dilution series for 11 points. The mixture was shaken for 5 minutes on a platform shaker, and incubated at room temperature for 1 hour. Filter plates were presoaked in 1% PEI. The binding reaction was harvested onto filters using Packard Filtermate harvester (Meriden, Conn.). The filters were then washed in 50 mM Tris pH 7.4, 10 mM MgCl₂, 2 mM EDTA, 0.04% Tween 20, 6-8 times per plate. The plates were dried for 20 minutes at 55° C. or overnight at room temperature. 30 μL microscintillant was added per well and counted for 1.5-3 minutes in inverted format on Packard TopCount.

[4] = target: T2, rhesus monkey MCH-2R (melanin-concentrating hormone type 2 receptor) (rhesus monkey, UniProt Q8MJ88 1-340); assay: cell-based or functional assay
[5] = target: T3, ferret MCH-2R (ferret, UniProt Q969V1 1-340 (human entry)); assay: radioligand competition binding on membranes of COS-7 cells transfected with ferret MCH-2R; radioligand not named
T3 construct: Function was measured in HEK-293 aequorin cells
T3 chain: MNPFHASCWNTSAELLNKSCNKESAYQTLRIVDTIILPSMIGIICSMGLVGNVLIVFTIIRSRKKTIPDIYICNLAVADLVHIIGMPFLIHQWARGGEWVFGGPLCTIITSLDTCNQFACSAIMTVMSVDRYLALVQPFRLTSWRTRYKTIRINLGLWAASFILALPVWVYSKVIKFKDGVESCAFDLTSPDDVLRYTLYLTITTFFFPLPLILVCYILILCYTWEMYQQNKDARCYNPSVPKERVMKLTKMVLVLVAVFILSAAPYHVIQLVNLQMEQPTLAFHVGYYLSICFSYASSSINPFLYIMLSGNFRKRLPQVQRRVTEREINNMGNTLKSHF
Method: as §1, §2

[6] = target: T1, human MCH-2R; assay: cell-based or functional assay
[7] = target: T3, ferret MCH-2R; assay: cell-based or functional assay
[8] = target: T2, rhesus monkey MCH-2R …; assay: displacement of 100 pM [125I]-[Phe13, Tyr19]-MCH from HEK293T cells expressing rhesus MCH-2R, filtration
Method: The remaining radio activity on the filter was quantitated using a TopCount HTS (Packard instrument) with a Microscint 0 scintillation cocktail (Packard instrument). […] Data were analyzed using GraphPad Prism Version 3.0.

Chain of rhesus monkey MCH-2R (melanin-concentrating hormone type 2 receptor) (rhesus monkey) (Q8MJ88 whole entry): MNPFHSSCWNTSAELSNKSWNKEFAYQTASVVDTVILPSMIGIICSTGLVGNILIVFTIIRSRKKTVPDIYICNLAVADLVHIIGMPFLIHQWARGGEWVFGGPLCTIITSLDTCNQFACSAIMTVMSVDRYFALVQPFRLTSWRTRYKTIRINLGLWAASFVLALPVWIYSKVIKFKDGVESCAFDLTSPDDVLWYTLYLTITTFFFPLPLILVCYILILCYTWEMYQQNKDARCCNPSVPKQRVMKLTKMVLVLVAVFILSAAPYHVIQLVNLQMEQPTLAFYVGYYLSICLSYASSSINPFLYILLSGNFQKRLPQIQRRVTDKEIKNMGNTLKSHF
T2 sequence (Q8MJ88 whole entry): as above
T1 sequence (Q969V1 whole entry): as the sequence (Q8MJ88 whole entry) above, with S6A, S16L, I84V, S143R, V163I, I170V, A258V, V324A, D326E, K330N counted along it

Nonspecific binding (cpm) [1]: 598 cpm and 567 cpm and 717 cpm
Total binding (cpm) [2]: 18000 cpm (2×) and 18700 cpm
Molecule: [^125I]-[Phe^13, Tyr^19]-MCH (from UniProt P20382 147-165) (peptide)

IC50 [3]: 10 nM
increase in intracellular calcium levels (fura-2), EC50 [4]: 24 nM
IC50 [5]: 55 nM
Function (EC50, nM), aequorin bioluminescence assay [6]: 43 nM
Function (EC50, nM), aequorin bioluminescence assay [7]: 69 nM
B1: Melanin-concentrating hormone (MCH) (peptide, UniProt P20382 147-165, looked up)
peptide: DFDMLRCMLGRVYRPCWQV
modifications: disulfide 7-16 (inferred)
notes: mature; also called cold MCH; MCH unlabeled peptide

increase in intracellular calcium levels (fura-2), EC50 [4]: 49 nM
IC50 [8]: 3.8 nM
Molecule: DFDMLRCMLGRVFRPCWQY (ends and bridges not checked; cysteine pairing not given here) [[Phe^13, Tyr^19]-MCH]
